According to patent US20220040297A1 (Chugai, published 2022):
Changes are numbered by the printed parent chain.

B1: GLS3000 S27eH (antibody, name in Kabat numbering, V domains shown)
VH: QVQLVESGGGVVQPGRSLRLSCAASGFTFSNAWMHWVRQAPGKGLEWVAQIKAKSNNYATYYAESVKGRFTISRDDSKNSLYLQMNSLKTEDTAVYYCRYVHYGAYYGVDAWGQGTTVTVSS
VL: DIVMTQSPLSLPVTPGEPASISCRSSQSLVHHNRNTYLHWYQQKPGQAPRLLIYKVSNRFSGVPDRFSGSGSGTDFTLKISRVEAEDVGVYYCGQGTQVPYTFGQGTKLEIK
notes: one-arm format as m2
B2: GLS3000 S27eI (antibody, name in Kabat numbering, V domains shown)
VH: B1 VH
VL: B1 VL with H32I
notes: one-arm format as m2
B3: GLS3000 S27eK (antibody, name in Kabat numbering, V domains shown)
VH: B1 VH
VL: B1 VL with H32K
notes: one-arm format as m2
B4: GLS3000 S27eL (antibody, name in Kabat numbering, V domains shown)
VH: B1 VH
VL: B1 VL with H32L
notes: one-arm format as m2
B5: GLS3000 S27eM (antibody, name in Kabat numbering, V domains shown)
VH: B1 VH
VL: B1 VL with H32M
notes: one-arm format as m2
B6: GLS3000 S27eN (antibody, name in Kabat numbering, V domains shown)
VH: B1 VH
VL: B1 VL with H32N
notes: one-arm format as m2
B7: GLS3000 S27eP (antibody, name in Kabat numbering, V domains shown)
VH: B1 VH
VL: B1 VL with H32P
notes: one-arm format as m2
B8: GLS3000 S27eQ (antibody, name in Kabat numbering, V domains shown)
VH: B1 VH
VL: B1 VL with H32Q
notes: one-arm format as m2
B9: GLS3000 S27eR (antibody, name in Kabat numbering, V domains shown)
VH: B1 VH
VL: B1 VL with H32R
notes: one-arm format as m2
B10: GLS3000 S27eT (antibody, name in Kabat numbering, V domains shown)
VH: B1 VH
VL: B1 VL with H32T
notes: one-arm format as m2
B11: GLS3000 S27eV (antibody, name in Kabat numbering, V domains shown)
VH: B1 VH
VL: B1 VL with H32V
notes: one-arm format as m2
B12: GLS3000 S27eW (antibody, name in Kabat numbering, V domains shown)
VH: B1 VH
VL: B1 VL with H32W
notes: one-arm format as m2
B13: GLS3000 S27eY (antibody, name in Kabat numbering, V domains shown)
VH: B1 VH
VL: B1 VL with H32Y
notes: one-arm format as m2
B14: GLS3000 S52A (antibody, name in Kabat numbering, V domains shown)
VH: B1 VH
VL: B1 VL with H32S, S57A
notes: one-arm format as m2
B15: GLS3000 S52D (antibody, name in Kabat numbering, V domains shown)
VH: B1 VH
VL: B1 VL with H32S, S57D
notes: one-arm format as m2
B16: GLS3000 S52P (antibody, name in Kabat numbering, V domains shown)
VH: B1 VH
VL: B1 VL with H32S, S57P
notes: one-arm format as m2
B17: GLS3000 S52Q (antibody, name in Kabat numbering, V domains shown)
VH: B1 VH
VL: B1 VL with H32S, S57Q
notes: one-arm format as m2
B18: GLS3000 S52Y (antibody, name in Kabat numbering, V domains shown)
VH: B1 VH
VL: B1 VL with H32S, S57Y
notes: one-arm format as m2
B19: GLS3000 S56A (antibody, name in Kabat numbering, V domains shown)
VH: B1 VH
VL: B1 VL with H32S, S61A
notes: one-arm format as m2
B20: GLS3000 S56D (antibody, name in Kabat numbering, V domains shown)
VH: B1 VH
VL: B1 VL with H32S, S61D
notes: one-arm format as m2
B21: GLS3000 S56E (antibody, name in Kabat numbering, V domains shown)
VH: B1 VH
VL: B1 VL with H32S, S61E
notes: one-arm format as m2
B22: GLS3000 S56F (antibody, name in Kabat numbering, V domains shown)
VH: B1 VH
VL: B1 VL with H32S, S61F
notes: one-arm format as m2
B23: GLS3000 S56G (antibody, name in Kabat numbering, V domains shown)
VH: B1 VH
VL: B1 VL with H32S, S61G
notes: one-arm format as m2
B24: GLS3000 S56H (antibody, name in Kabat numbering, V domains shown)
VH: B1 VH
VL: B1 VL with H32S, S61H
notes: one-arm format as m2
B25: GLS3000 S56I (antibody, name in Kabat numbering, V domains shown)
VH: B1 VH
VL: B1 VL with H32S, S61I
notes: one-arm format as m2
B26: GLS3000 S56K (antibody, name in Kabat numbering, V domains shown)
VH: B1 VH
VL: B1 VL with H32S, S61K
notes: one-arm format as m2
B27: GLS3000 S56L (antibody, name in Kabat numbering, V domains shown)
VH: B1 VH
VL: B1 VL with H32S, S61L
notes: one-arm format as m2
B28: GLS3000 S56M (antibody, name in Kabat numbering, V domains shown)
VH: B1 VH
VL: B1 VL with H32S, S61M
notes: one-arm format as m2
B29: GLS3000 S56N (antibody, name in Kabat numbering, V domains shown)
VH: B1 VH
VL: B1 VL with H32S, S61N
notes: one-arm format as m2
B30: GLS3000 S56P (antibody, name in Kabat numbering, V domains shown)
VH: B1 VH
VL: B1 VL with H32S, S61P
notes: one-arm format as m2
B31: GLS3000 S56Q (antibody, name in Kabat numbering, V domains shown)
VH: B1 VH
VL: B1 VL with H32S, S61Q
notes: one-arm format as m2
B32: GLS3000 S56R (antibody, name in Kabat numbering, V domains shown)
VH: B1 VH
VL: B1 VL with H32S, S61R
notes: one-arm format as m2

Target: CD3ε homodimer protein (human, UniProt P07766 23-126, limits assumed)
Assay: SPR, immobilized CD3ε homodimer;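 also: biacore T200 surface plasmon resonance at 25 °C, antibody variants flowed as analytes over amine-coupled CD3ε homodimer on a CM4 chip, variant binding amount divided by that of GLS3000 antibody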

Chain of CD3ε homodimer protein (P07766 23-126 limits assumed): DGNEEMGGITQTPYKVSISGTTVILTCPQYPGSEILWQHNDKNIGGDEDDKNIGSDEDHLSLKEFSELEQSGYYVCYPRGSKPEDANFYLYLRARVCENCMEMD

Binder | ratio of amounts bound (vs GLS3000)
B1 | 1.23
B2 | 1.07
B3 | 1.59
B4 | 1.17
B5 | 1.23
B6 | 1.16
B7 | 1.26
B8 | 1.1
B9 | 1.58
B10 | 0.97
B11 | 1.08
B12 | 1.55
B13 | 1.2
B14 | 0.93
B15 | 0.63
B16 | 0.33

Binder | ratio of amounts bound (vs GLS3000)
B17 | 1.05
B18 | 1.12
B19 | 1.16
B20 | 0.77
B21 | 0.71
B22 | 1.32
B23 | 0.92
B24 | 1.05
B25 | 0.99
B26 | 1.46
B27 | 1.02
B28 | 1.05
B29 | 0.92
B30 | 0.95
B31 | 1.04
B32 | 1.36
